Reference: patent publication US20030082745A1 (published 2003)
Each block holds one binder with its values, some of them ahead of it.

Key:
[1] = target: T1, pol κ76 (76 kDa alternatively spliced isoform product of POLK) (human, UniProt Q9UBT6 1-870); assay: yeast two-hybrid
T1 construct: Tested as a yeast two-hybrid fusion (FLAG-modified pGBT9 / pGAD424); also called 76-kDa pol κ isoform
T1 sequence: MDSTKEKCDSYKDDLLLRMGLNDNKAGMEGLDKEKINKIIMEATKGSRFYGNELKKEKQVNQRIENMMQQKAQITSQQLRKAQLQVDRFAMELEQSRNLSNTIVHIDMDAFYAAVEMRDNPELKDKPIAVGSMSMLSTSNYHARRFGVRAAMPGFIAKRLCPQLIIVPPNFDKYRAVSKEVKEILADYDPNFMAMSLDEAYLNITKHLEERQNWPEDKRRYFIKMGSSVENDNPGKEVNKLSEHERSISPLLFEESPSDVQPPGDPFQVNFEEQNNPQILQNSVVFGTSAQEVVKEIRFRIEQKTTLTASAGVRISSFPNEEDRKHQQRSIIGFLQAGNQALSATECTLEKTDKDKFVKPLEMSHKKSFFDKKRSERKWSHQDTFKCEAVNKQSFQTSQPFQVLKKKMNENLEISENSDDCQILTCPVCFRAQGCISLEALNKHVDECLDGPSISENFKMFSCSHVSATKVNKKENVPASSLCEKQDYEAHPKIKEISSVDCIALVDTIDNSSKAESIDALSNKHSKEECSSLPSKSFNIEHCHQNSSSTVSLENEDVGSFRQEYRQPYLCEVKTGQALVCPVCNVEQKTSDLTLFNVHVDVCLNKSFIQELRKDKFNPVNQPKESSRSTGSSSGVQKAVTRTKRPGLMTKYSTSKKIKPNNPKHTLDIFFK

[2] = target: T2, pol κ (primary protein product of POLK; DNA polymerase κ) (human, UniProt Q9UBT6 1-870); assay: yeast two-hybrid
T2 construct: Tested as a yeast two-hybrid fusion (FLAG-modified pGBT9 / pGAD424); also called DINB1 product
T2 sequence (looked up): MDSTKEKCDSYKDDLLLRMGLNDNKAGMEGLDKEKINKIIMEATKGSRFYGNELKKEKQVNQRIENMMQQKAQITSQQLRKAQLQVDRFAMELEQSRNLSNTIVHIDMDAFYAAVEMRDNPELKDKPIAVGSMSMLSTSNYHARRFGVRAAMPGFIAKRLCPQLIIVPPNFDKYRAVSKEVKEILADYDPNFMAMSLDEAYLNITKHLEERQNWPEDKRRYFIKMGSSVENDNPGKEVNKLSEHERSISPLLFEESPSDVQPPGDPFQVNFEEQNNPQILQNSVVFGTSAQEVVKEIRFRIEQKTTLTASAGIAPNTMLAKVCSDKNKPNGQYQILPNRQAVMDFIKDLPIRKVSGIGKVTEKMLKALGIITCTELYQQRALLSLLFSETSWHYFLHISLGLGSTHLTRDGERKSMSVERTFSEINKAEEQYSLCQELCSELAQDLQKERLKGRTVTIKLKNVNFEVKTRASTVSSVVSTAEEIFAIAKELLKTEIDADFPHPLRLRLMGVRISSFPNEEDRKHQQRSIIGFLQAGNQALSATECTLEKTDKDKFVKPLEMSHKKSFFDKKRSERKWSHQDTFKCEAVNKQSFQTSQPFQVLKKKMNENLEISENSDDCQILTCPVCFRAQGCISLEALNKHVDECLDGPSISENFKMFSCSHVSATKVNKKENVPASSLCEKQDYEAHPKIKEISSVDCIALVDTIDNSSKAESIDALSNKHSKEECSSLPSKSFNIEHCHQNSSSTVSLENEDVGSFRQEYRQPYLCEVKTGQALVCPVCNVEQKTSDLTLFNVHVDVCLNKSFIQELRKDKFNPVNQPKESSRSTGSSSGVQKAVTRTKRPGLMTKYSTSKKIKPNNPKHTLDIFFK

binding result [1]: no binding
binding result [2]: no binding
B1: GPBPΔ26 (Goodpasture antigen binding protein alternatively spliced product deleted for 26 amino acid residues) (enzyme)
chain: MSDNQSWNSSGSEEDPETESGPPVERCGVLSKWTNYIHGWQDRWVVLKNNALSYYKSEDETEYGCRGSICLSKAVITPHDFDECRFDISVNDSVWYLRAQDPDHRQQWIDAIEQHKTESGYGSESSLRRHGSMVSLVSGASGYSATSTSSFKKGHSLREKLAEMETFRDILCRQVDTLQKYFDACADAVSKDELQRDKVVEDDEDDFPTTRSDGDFLHSTNGNKEKLFPHVTPKGINGIDFKGEAITFKATTAGILATLSHCIELMVKREDSWQKRLDKETEKKRRTEEAYKNAMTELKKKSHFGGPDYEEGPNSLINEEEFFDAVEAALDRQDKIEEQSQSEKVRLHWPTSLPSGDAFSSVGTHRFVQKVEEMVQNHMTYSLQDVGGDANWQLVVEEGEMKVYRREVEENGIVLDPLKATHAVKGVTGHEVCNYFWNVDVRNDWETTIENFHVVETLADNAIIIYQTHKRVWPASQRDVLYLSVIRKIPALTENDPETWIVCNFSVDHDSAPLNNRCVRAKINVAMICQTLVSPPEGNQEISRDNILCKITYVANVNPGGWAPASVLRAVAKREYPKFLKRFTSYVQEKTAGKPILF
notes: Splice isoform of the entry named (26 residues deleted); Two-hybrid construct not described; also called GPBPΔ26

binding result [1]: no binding
binding result [2]: no binding
B2: GPBP (Goodpasture antigen binding protein) (enzyme, UniProt Q9Y5P4 1-624, looked up)
chain: MSDNQSWNSSGSEEDPETESGPPVERCGVLSKWTNYIHGWQDRWVVLKNNALSYYKSEDETEYGCRGSICLSKAVITPHDFDECRFDISVNDSVWYLRAQDPDHRQQWIDAIEQHKTESGYGSESSLRRHGSMVSLVSGASGYSATSTSSFKKGHSLREKLAEMETFRDILCRQVDTLQKYFDACADAVSKDELQRDKVVEDDEDDFPTTRSDGDFLHSTNGNKEKLFPHVTPKGINGIDFKGEAITFKATTAGILATLSHCIELMVKREDSWQKRLDKETEKKRRTEEAYKNAMTELKKKSHFGGPDYEEGPNSLINEEEFFDAVEAALDRQDKIEEQSQSEKVRLHWPTSLPSGDAFSSVGTHRFVQKPYSRSSSMSSIDLVSASDDVHRFSSQVEEMVQNHMTYSLQDVGGDANWQLVVEEGEMKVYRREVEENGIVLDPLKATHAVKGVTGHEVCNYFWNVDVRNDWETTIENFHVVETLADNAIIIYQTHKRVWPASQRDVLYLSVIRKIPALTENDPETWIVCNFSVDHDSAPLNNRCVRAKINVAMICQTLVSPPEGNQEISRDNILCKITYVANVNPGGWAPASVLRAVAKREYPKFLKRFTSYVQEKTAGKPILF
notes: Two-hybrid construct (fusion domain, limits, species) is not described; also called product of COL4A3BP
